Experimental data published in publication PMC5740175.

Experiments:
[1] = test system: IRP1 (iron regulatory protein 1); test: EMSA; conditions: 25 mM Tris/HCl pH 7.4, 40 mM KCl, 1% Triton X-100, protease inhibitor (EDTA-free), 200 ng IRP1, 100 ng labeled probe, 15 min room temperature, then 50 ng …
[2] = test system: IRP1 (iron regulatory protein 1); test: competition EMSA; conditions: 25 mM Tris/HCl pH 7.4, 40 mM KCl, 1% Triton X-100, protease inhibitor (EDTA-free); 200 ng IRP1, 100 ng labeled probe; 15 min room temperature, then 50 ng …

Substance | binding signal (% of WT bound) ([1]; direct, minimal binding, reduction of almost 95%, mean of 4, heparin) | binding signal (% of WT bound) ([1]; direct, 75% decrease, mean of 4, heparin) | Kd [2] [nM] | binding signal (% of WT bound) [1]
FTL 5' IRE +39ΔC | 5 | – | – | –
FTL 5' IRE Ghent +49A>G | – | 25 | 2.7 | –
FTL 5' IRE WT | – | – | 0.5 | 100
